Experimental data as given in the DeepSol protein solubility set.

Test: soluble on expression in E. coli; label from the status in PepcDB or PDB records

| Sequence | soluble on expression in E. coli |
| --- | --- |
| VPLTVADIDRWNAQAVREVFHAASARAEVTFEASRQLAALSIFANSGGKTAEAAAHHNAGIRRDLDAHGNEALAVARAADRAADGIVKVQSELAALRHAAAAAELTIDALINRVVPIPGLRSTEAQWARTLAKQTELQAELDAIMAEANAVDEELASAVNMADGDAPIPADSGPPVGPEGLTPTQLASDANEERLREERARLQAHLERLQAEYDQLSVRAARDYHNGILDGDAVGRLAALTDELSAARGRLGELDAVDEALSRAPETYLTQLQIPEDPNQQVLAAVAVGNPDTAANVSVTVPGVGSTTRGALPGMVTEARDLRSEVIRQLNAAGKPASVATIAWMGYHPPPNPLDTGSAGDLWQTMTDGQAHAGAADLSRYLQQVRANNPSGHLTVLGHSYGSLTASLALQDLDAQSAHPVNDVVFYGSPGLELYSPAQLGLDHGHAYVMQAPHDLITNLVAPLAPLHGWGLDPYLTPGFTELSSQAGFDPGGIWRDGVYAHGDYPRSFLDAAGQPQLRMSGYNLAAIAAGLPDNTVGPPLLPPILGGGMPAAPGPALRGGR | not soluble |
| VQASDRTWQSNFIRRWYFTETVEYRPLVKYDASMSWDERTVSALEGAFRSEVRARRVNGPHRDVIVSLDGAEFLVRWLTTGWPRQVAEALHATSRPDILAAPTMSPGARKAAHDAGVGWVDESGAADIHYRNTSTGTTLVIETKGAPPAPLDARIGWRRATLAVCEALLANIAGPTVASVVEATGLSMGSSAQALKFLEKNGHLASATARGPKSARLIVDRDALLDAYAEAADKLRSPISISTGVLWRDPTAGVVKAGQLWDAAGIEWAATSALSASLLAPMQTEIAPMEIYVPGRSWSDLRRAAMAAGLQEIAGGRLILRFFPTPACARLTEQNLQGFRSMLWPRVYADLRTAGVRGEDAAEHLREAMTK | not soluble |
| VRAPVTKVHGGAGSAQRMPLCDKCGSGIVGAVVKARDKYRHPECFVCADCNLNLKQKGYFFVEGELYCETHARART | soluble |
| VRQYGDMPSRVVVLHGGPGGAGEVEPLARELGNRGHAVLEPFQTCQTVGGQVDELSSHIERFCAPPVTVIGWSWGAWLGCLLAAQRGMLVRRLILVGSGPFEESYASAIRTTKNSRLTKDQRKEISQLRPTEGDPAEVARFIALSDIADTYARDTSQQPFVAFDGAIHAAVWAEAVDMRRNGALLEAVCAIRCPVVAIHGDYDPRPSEGVQIPLRAALPSADFVQLERCGHKPWQETFAKADFYRALEA | not soluble |
| VSDQFDAKAFLKTVTSQPGVYRMYDAGGTVIYVGKAKDLKKRLSSYFRSNLASRKTEALVAQIQQIDVTVTHTETEALLLEHNYIKLYQPRYNVLLRDDKSY | soluble |
| VSELSVATGAVSTASSSIPMPAGVNPADLAAELAAVVTESVDEDYLLYECDGQWVLAAGVQAMVELDSDELRVIRDGVTRRQQWSGRPGAALGEAVDRLLLETDQAFGWVAFEFGVHRYGLQQRLAPHTPLARVFSPRTRIMVSEKEIRLFDAGIRHREAIDRLLATGVREVPQSRSVDVSDDPSGFRRRVAVAVDEIAAGRYHKVILSRCVEVPFAIDFPLTYRLGRRHNTPVRSFLLQLGGIRALGYSPELVTAVRADGVVITEPLAGTRALGRGPAIDRLARDDLESNSKEIVEHAISVRSSLEEITDIAEPGSAAVIDFMTVRERGSVQHLGSTIRARLDPSSDRMAALEALFPAVTASGIPKAAGVEAIFRLDECPRGLYSGAVVMLSADGGLDAALTLRAAYQVGGRTWLRAGAGIIEESEPEREFEETCEKLSTLTPYLVARQ | soluble |
| VSIKKSSGLNFDNTAIAINAGKGLEFDTNTSESPDINPIKTKIGSGIDYNENGAMITKLGAGLSFDNSGAITIGNKNDDKLTLWTTPDPSPNCRIHSDNDCKFTLVLTKCGSQVLATVAALAVSGDLSSMTGTVASVSIFLRFDQNGVLMENSSLKKHYWNFRNGNSTNANPYTNAVGFMPNLLAYPKTQSQTAKNNIVSQVYLHGDKTKPMILTITLNGTSESTETSEVSTYSMSFTWSWESGKYTTETFATNSYTFSYIAQE | soluble |
| VTDTDLITAGESTDGKPSDAAATDPPDLNADEPAGSLATMVLPELRALANRAGVKGTSGMRKNELIAAIEEIRRQANGAPAVDRSAQEHDKGDRPPSSEAPATQGEQTPTEQIDSQSQQVRPERRSATREAGPSGSGERAGTAADDTDNRQGGQQDAKTEERGTDAGGDQGGDQQASGGQQARGDEDGEARQGRRGRRFRDRRRRGERSGDGAEAELREDDVVQPVAGILDVLDNYAFVRTSGYLPGPHDVYVSMNMVRKNGMRRGDAVTGAVRVPKEGEQPNQRQKFNPLVRLDSINGGSVEDAKKRPEFGKLTPLYPNQRLRLETSTERLTTRVIDLIMPIGKGQRALIVSPPKAGKTTILQDIANAITRNNPECHLMVVLVDERPEEVTDMQRSVKGEVIASTFDRPPSDHTSVAELAIERAKRLVEQGKDVVVLLDSITRLGRAYNNASPASGRILSGGVDSTALYPPKRFLGAARNIEEGGSLTIIATAMVETGSTGDTVIFEEFKGTGNAELKLDRKIAERRVFPAVDVNPSGTRKDELLLSPDEFAIVHKLRRVLSGLDSHQAIDLLMSQLRKTKNNYEFLVQVSKTTPGSMDSD | not soluble |
| VTRKSLLERCMEMEKEGYTGCLLSGGMDSRLKVPLDKFKDEIKAIKEKTKLKINAHVGFVDESDLEWLKYIDVVSLDFVGDNEVIKRVYKIDKKVEDYLRVLDLLTENGIRVAPHITIGLDFGKVHWEFKAIDILVNYPIDVLVLDVLIPTPGTEMANVPKVPVDEAIRVVKYAREKFSGELSIGCMRPFGEWRVKFDREAILAGVDRI | not soluble |
| VVTSVADENVASRIASWGTGPAPDPRLDYAHAHLKGRRGRSPARPNAPIGARSFAVGRKICRVERFTLLEHGFVGHALHRVPCAGLVALVMSACSLAVCREVGNYAQRRVGRFAFFEQTFVRHALTPRCSRTDSKTSYTQLNRICKFPPHWV | not soluble |
| VVVEDSGASFGESLLDTTSEPGKILVKRISGGSGITVTDYGDQVEIEASVTDALSLMYSTSTGGPASIAANALTDFDLSGALTVNSVGTGLTKSAAGIQLAAGKSGLYQITMTVKNNTVTTGNYLLRVKYGSSDFVVACPASSLTAGGTISLLIYCNVLGVVSLDVLKFSLCNDGAALSNYIINITAAKIN | soluble |
| WIVQKQKKWSSDPVGTQKNVFDLLIKKAQKTTFGKDHAFDSIQSHADYCRLVPVREYEGFKEYIELVKQGTQDVLWPGIPLYFAKTSGTTSGVKYIPITKDSIGYHINGAKDALLNYVHQTGKSEFLDKKLIFLSGSPIMEKKNGIYIGRLSGIVNHHVPGYLRGNQLPSFETNCVDDWESKLEKIVDETIDQDMSLISGIPPWVQMYFDRIEERTHKKIKDVFPSFSLLVYGGVNFSPYKRKLIESIGKEIDTVETYPASEGFIAFQDIPGQAGLLLLLNSGIFYEFIPVEEYGSANPTRLTIGEVKTDVNYALVMSTNAGLFAYSIGDTVKFVSTAPYRIVVTGRVKHFISAFGEHVIGEEVEQAMKNALLKHPEVSITEFTVAPQVTPEEGLPYHEWLIEFISMPADMDQFAHDLDQEMIQKNIYYKDLIVGNILRPLVITSISAGGF | not soluble |
| WQFTPNTGGNTITKVEAENMKIGGTYAGKISAPFDGVALYANADYVSYSQYFANSTHNISVRGASSNAGTAKVDLVIGGVTVGSFNFTGKTPTVQTLSNITHATGDQEIKLALTSDDGTWDAYVDFIEFSL | soluble |
| WTKKTLGSLFELKKGEMLEKELLAPDGKYEYFNGGIKASGRTNEFNTFKNTISIIIGGSCGYVRLADKDYFCGQSSCTLTVLDPLEIDLKFAYYALKSQEEKITSLASGTTIKNIRLSDLKDLPIPLVKSIQDQRTIAHALSVFDL | soluble |
| WVPHELTENQKNRRFEVSSSLILRNHNEPFLDRIVTCDEKWILYDNRRRSAQWLDQEEAPKHFPKPILHPKKVMVTIWWSAAGLIHYSFLNPGETITSEKYAQEIDEMNQKLQRLQLALVNRKGPILLHDNARPHVAQPTLQKLNELGYEVLPHPPYSPDLLPTNYHVFKHLNNFLQGKRFHNQQDAENAFQEFVESQSTDFYATGINQLISRWQKCVDCNGSYFD | soluble |
| WYCLISHGTRPKYWFDIEVYRQGYYPRCGQLRSWIARKDGIWFTRKYHSPPGHVLDWKIQ | not soluble |
| YDSEVIEYAKEQENIISKLEYRVYKHDDGRSVNRQDLMRDYARVLYSSSFRRLQGKMQLLGVDASKFNRNRLTHSLEVAQIARSIAYDLELNHTVVAETASLAHDIGNPPFGHYGEVVLNDLSLACGGYEGNAQAFRILRTLEKKHYAYPGLNLNVRTLMAITKYFFNKHQNNKKFLYDADYEFLKTELDSKGVTVTKSIDAEIMDLADEIAYAAHDLEDALSFGMISLGEIVHEFSISDKFKDAYPTMTDIAKEAQNVAMKASRSGTSEEYAIVLKKELTSMIVNILCSDIGLVDGCLGYKRHAKLAEGLKKLLFKAILRKKDIQLYERRGEQIIRGLFEVYSDEKYNKDNMLLPPELRAINDCKTRLVTDYISGMMDSYAAQEYEKYFGKGSADKLYFK | soluble |
| YEGEKSVVVPVSATYKELHKLMEKEFKGKEFSVVDYDDDETILLIAVQSDKLYGTYYQFDTRTKKFTLLYDLMPQLKEEDMAEMRPIKFKSRDGLTIHGFITLPKAALEGKKVPLIVNPHGGPQGIRDSWGFNPETQLFASRGYATLQVNFRISGGYGKEFLRAGFKQIGRKAMDDVEDGVRYAISQGWVDPDRIAIYGASHGGYATLMGLVKTPDLYACGVDYVGVSNIYTFFDSFPEYWKPFKEMVKEIWYDLDNPEEAAIAKEVSPFFQIDKINKPLFVVQGANDPRVNINESDQIVTALRARGFEVPYMVKYNEGHGFHREENSMELYRAMLGFFAKHLK | not soluble |
| YHKLRLAIKEICKTDGIPNIKWGMYIAFGEKLLKSYLKMKAGSASSDMIAEYINNAISAFSSRTGISQETAQKIADFITSNY | soluble |
| YNSLSFLMRHDMIAGFHWFGPWGRDTFISMPGVLLVSGRYNEARRVLEHYAERIQDGMIPNTQDVEALRFSADTSLWFIYAVQKYLEYAGDDDFARQMLVPIKSIITAYIKGNSMFHLDDDLVTLTGSPLTWMDAMVSGKPVTPRIGKPIEINALWYNALSFYSRTAHDITGEDTEMFSKLARRIKQKFRAKFIKGDAVLDVSDPDDMKFRPNFLIPYFLPYPLLNDRKFVDLAWEKLVTPYGLRTLSPDDPDYVPTYSGPQPERDMAYHNGTVWPWLAGIFITAAVKTGYDKHALLEKFAPLFSMSRIPEIFDGSGTGIPKGCIMQAWSHGEIARAYFEDLRGGRS | not soluble |
